The values below come from patent US20190112365A1 (EISAI R AND D MANAGEMENT, published 2019).

For experiment [1], the target named is T1, Human Tau 2N4R, wild type, recombinant full length (human, UniProt P10636 2-758).
T1 construct: Full length 2N4R isoform; monomer in SPR and ELISA; heparin-induced aggregates or seeds in the functional assays; also called Tau441; Tau-441
Description: SPR BIAcore, biotinylated mAb on streptavidin (CAP) chip, single cycle, 1:1 Langmuir. As to the method: (§1) 400 μg of each antibody was diluted to 2 mg/mL and buffer-exchanged into 0.1 M sodium bicarbonate, pH 8.3 using 0.5 mL Zeba™ 40 kDa MWCO desalting columns (Thermo). NHS-PEG4-biotin, prepared immediately before use by dissolving in water to a 20 mM final stock concentration, was added to antibodies at a 5:1 molar ratio (biotin:MAb) and conjugated for 1 hr at room temperature. Excess biotin was removed by two sequential buffer exchanges into 1×DPBS using 0.5 mL Zeba™ 40 kDa MWCO desalting columns. For the BIAcore™ assay, antibodies were diluted to 2 μg/mL in PBS-P+/0.2% BSA (the same preparation used for the running buffer), centrifuged at 14,000 g for 5 min at room temperature, and the supernatant transferred to a new tube. Injection time was subsequently determined for each antibody to achieve a capture level of ˜225 RU.
(§2) Biotinylated humanized and mouse mAbs were captured on a streptavidin-coated chip and kₐ, kd, and KD were determined for binding to Tau (Table 11). […] The affinity of 7G6-HCzu8-LCzu6, 7G6-HCzu24-LCzu15, 7G6-HCzu24-LCzu18, 7G6-HCzu25-LCzu15, and 7G6-HCzu25-LCzu18 were all similar.

Experiment [2] concerns the target T1, Human Tau 2N4R, wild type, recombinant …. Description: SPR, streptavidin capture; against ms7G6. As to the method: as §1, §2
For orientation: SPR reads the build-up and loss of mass on a sensor chip optically.

The target is the same in experiment [3]. Put plainly: SPR BIAcore, anti-human capture, monomeric Tau, 1:1 Langmuir. The procedure: All experiments were performed using a BIAcore™ T-100 instrument (GE Healthcare). 10 μL anti-human IgG (monoclonal mouse anti-human Fc) from human antibody capture kit (GE Healthcare) was diluted to 25 μL/mL in 200 μL final immobilization buffer (10 mM sodium acetate, pH 5.0). The flow rate was set to 5 μL/min, flowpath 1. Fifty μL N-hydroxysuccinamide (NETS) and 50 μL 1-ethyl-3-(3-dimethylaminopropyl) carbidiimide (EDC) were mixed and injected for 420 sec to activate the CM5 chip surface. The diluted antibody was injected for 360 seconds followed by 1 M ethanolamine for 420 seconds. The flowpath was then switched to flowpath 2. A new EDC/NHS mixture was prepared and the procedure was repeated for flow cell 2. The surface was conditioned by 2 injections of 30 sec using flowpath 1, 2 at 30 μL/min of 3M MgCl₂. For the anti-mouse surface, 10 μL anti-mouse IgG (polyclonal rabbit anti-mouse IgG) from mouse antibody capture kit (GE Healthcare) was diluted to 30 μL/mL in 324 μL final immobilization buffer (10 mM sodium acetate, pH 5.0). The flow rate was set to 5 μL/min, flowpath 3. Fifty μL NHS and 50 μL EDC were mixed and injected for 420 sec to activate the chip surface. The diluted antibody was injected for 420 sec. 1 M ethanolamine was injected for 420 sec. Flow path was switched to flowpath 4. A new EDC/NHS mixture was prepared and the procedure was repeated for flow cell 4. The surface was conditioned by 2 injections of 30 sec using flowpath 3, 4 at 30 μL/min of 10 mM glycine, pH 1.7.
Tau binding for humanized mAbs was analyzed by BIAcore™ in two different formats. The first format was performed as above, i.e. mAbs were captured with an immobilized species-specific anti-Fc antibody. […] In the second format, biotinylated mAbs were captured on a streptavidin-coated chip. This latter format allowed direct comparison of Tau binding affinity between humanized and the parental mouse antibody since the capture method was identical.
The final humanized mAbs were analyzed by BIAcore™ to determine the kₐ, kd, and KD for binding to Tau as above (Table 10).

T1 sequence (P10636 other isoform, or with tags, fused parts or gaps limits assumed): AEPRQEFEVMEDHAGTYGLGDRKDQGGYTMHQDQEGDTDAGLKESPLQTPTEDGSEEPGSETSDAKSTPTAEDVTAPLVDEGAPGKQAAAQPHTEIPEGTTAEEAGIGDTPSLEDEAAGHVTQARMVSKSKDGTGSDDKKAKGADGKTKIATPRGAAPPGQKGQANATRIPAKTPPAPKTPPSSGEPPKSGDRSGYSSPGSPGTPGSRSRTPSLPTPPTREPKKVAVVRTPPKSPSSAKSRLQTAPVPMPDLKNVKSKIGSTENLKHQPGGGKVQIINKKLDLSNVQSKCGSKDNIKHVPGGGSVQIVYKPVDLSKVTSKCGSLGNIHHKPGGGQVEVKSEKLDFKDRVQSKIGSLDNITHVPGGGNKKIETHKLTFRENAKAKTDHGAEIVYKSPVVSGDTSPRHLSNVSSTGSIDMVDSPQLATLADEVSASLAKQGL

B1: 7G6-HCzu24-LCzu15 (antibody, human IgG1, kappa)
heavy: not shown
light: DVQMTQSPSSLSASVGDRVTITCRSSQSILHSNGNTYLEWYQQKPGKAPKLLISKVSNRFSGVPSRFSGSGSGTDFTLTISSLQPEDFATYYCFQGSHVPFTFGQGTKLEIKRTVAAPSVFIFPPSDEQLKSGTASVVCLLNNFYPREAKVQWKVDNALQSGNSQESVTEQDSKDSTYSLSSTLTLSKADYEKHKVYACEVTHQGLSSPVTKSFNRGEC
notes: humanized, human IgG1 kappa
For orientation: Kd means the constant that tells how readily two partners part at equilibrium. By koff is commonly meant the rate constant with which the complex falls apart. As usually defined, the kon is the rate constant with which the complex forms. Turning to B1, in experiment [1], the Kd was 0.0898 nM, the off-rate (koff) worked out at 0.000487 s⁻¹ and the kon is 5.42e+06 M⁻¹ s⁻¹. The “fold drop in affinity” value in experiment [2] was roughly 1.4 fold. In addition, in experiment [3], the Kd came out at 0.13 nM, the koff is 0.00011 s⁻¹ and the kon is 809000 M⁻¹ s⁻¹.

B2: 7G6-HCzu25-LCzu15 (antibody, human IgG1, kappa)
heavy: not shown
light: DVQMTQSPSSLSASVGDRVTITCRSSQSILHSNGNTYLEWYQQKPGKAPKLLISKVSNRFSGVPSRFSGSGSGTDFTLTISSLQPEDFATYYCFQGSHVPFTFGQGTKLEIKRTVAAPSVFIFPPSDEQLKSGTASVVCLLNNFYPREAKVQWKVDNALQSGNSQESVTEQDSKDSTYSLSSTLTLSKADYEKHKVYACEVTHQGLSSPVTKSFNRGEC
notes: humanized, human IgG1 kappa
In the case of B2, in experiment [1], the Kd came out at 0.0998 nM, the koff stood at 0.00027 s⁻¹ and the kon came out at 2.71e+06 M⁻¹ s⁻¹. The “fold drop in affinity” value in experiment [2] is roughly 1.4 fold. In experiment [3], the Kd is 0.13 nM, the koff was found to be 0.00013 s⁻¹ and the kon is 985000 M⁻¹ s⁻¹.

B3: 7G6-HCzu24-LCzu18 (antibody, human IgG1, kappa)
heavy: not shown
light: DIQMTQSPSSLSASVGDRVTITCRSSQSILHSNGNTYLEWYQQKPGKAPKLLISKVSNRFSGVPSRFSGSGSGTDFTLTISSLQPEDFATYYCFQGSHVPFTFGQGTKLEIKRTVAAPSVFIFPPSDEQLKSGTASVVCLLNNFYPREAKVQWKVDNALQSGNSQESVTEQDSKDSTYSLSSTLTLSKADYEKHKVYACEVTHQGLSSPVTKSFNRGEC
notes: humanized, human IgG1 kappa
For B3, in experiment [1], the Kd amounted to 0.0797 nM, the koff stood at 0.000304 s⁻¹ and the kon came to 3.81e+06 M⁻¹ s⁻¹. Moreover, the “fold drop in affinity” value in experiment [2] was roughly 1.4 fold. In experiment [3], the Kd was 0.09 nM, the koff was 9e-05 s⁻¹ and the kon worked out at 948000 M⁻¹ s⁻¹.
